According to the supplement of paper PMC9170038:

Test system: MS2 coat protein
Assay: apparent KD of MS2 coat protein; designed switch direction (-1 OFF switch, 1 ON switch): -1; higher = weaker reporter binding
Outline: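 Designed RNA switches with common flanks were made on Illumina chips by stalled E. coli RNA polymerase. Titration with SNAP-549-labelled MS2 coat protein doubled from 0.7 or 1.5 nM up to 3 µM. Apparent KD is each design's median over clusters after curve-fitting normalised fluorescence.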

[1] = input ligand: microRNA oligo, concentration not stated
[2] = Eterna round: R95, input ligand: microRNA oligo, concentration not stated
[3] = Eterna round: R95, input ligand: FMN 200 uM
[4] = Eterna round: R95, input ligand: none

Row | Sequence | apparent KD of MS2 coat protein (input ligand: FMN 200 uM) | apparent KD of MS2 coat protein (input ligand: none) | apparent KD of MS2 coat protein [2] | further results
1 | CUUGUGUGAGGAUAUGCGUAGGCAGUAAGUAAGUAGCCGGAGCAGAAGGCACAUGAGGAUCACCCAUGUGUUAC [EX4 B.1] (Eterna round: R97, puzzle: Exclusion 4) | 0.121 µM | 0.0726 µM |  | 
2 | CUUGUUUAUGUAGGAUAUGCCUGGCGUGCCUUUGCAGAAGGACAUGAGGAUCACCCAUGUAUUGCGGUCUGCGUUCAGAUCGCA [salish99_ExNG1_r4_045] (Eterna round: R96, puzzle: Exclusion NG 1) | 0.0346 µM | 0.0345 µM |  | apparent KD of MS2 coat protein [1]: 0.0232 µM
3 | CUUUAGUGAGGAUAUCAGUAGUAGAACAAUAGUACUACUACUGAGAAGGCACAUGAGGAUCACCCAUGUUCCUC [Fiskers Ex 4 Super stable 44 mod 8] (puzzle: Exclusion 4) |  |  | 0.0345 µM | 
4 | CUUUUGUGAGGAUAUCAGGUGUGCUAGCGUACUGGUACAUCUGAGAAGGCACAUGAGGAUCACCCAUGUUCCUC [JL-ex4-3.17 Brourd mod] (puzzle: Exclusion 4) |  |  | 0.0391 µM | 
5 | CUUUUGUGAGGAUAUCAGUAGUAAAUAAAUAAAAUUAAUACUGAGAAGGCACAUGAGGAUCACCCAUGUUCCUC [Mat - Exclusion 4 - Mod of Salish - D63] (puzzle: Exclusion 4) |  |  | 0.033 µM | 
6 | CUUUUGUGAGGAUAUCAGUAGUAAAUUAAUAAAAUUACUACUGAGAAGGCACAUGAGGAUCACCCAUGUUCCUC [salish99_ex3_r3_078] (puzzle: Exclusion 4) |  |  | 0.0419 µM | 
7 | CUUUUGUGAGGAUAUCAGUAGUAAUAAUAUAAAAUUACUACUGAGAAGGCACAUGAGGAUCACCCAUGUUCCUC [salish99_ex3_r3_102] (puzzle: Exclusion 4) |  |  | 0.0363 µM | 
8 | CUUUUGUGAGGAUAUCAGUAGUUAAAAAAUAAAAUUACUACUGAGAAGGCACAUGAGGAUCACCCAUGUUCCUC [salish99_ex4_r3_016] (puzzle: Exclusion 4) |  |  | 0.0405 µM | 
9 | CUUUUGUGAGGAUAUUAGUAGUAAAAAAAUAAAAUUACUACUGAGAAGGCACAUGAGGAUCACCCAUGUUUCUC [salish99_ex4_r3_037] (puzzle: Exclusion 4) |  |  | 0.0292 µM | 
10 | CUUUUGUGAGGAUAUUAGUAGUAAAUAAAUAAAAUUACUACUGAGAAGGCACAUGAGGAUCACCCAUGUUCUUC [salish99_ex4_r3_066] (puzzle: Exclusion 4) |  |  | 0.0188 µM | 
11 | CUUUUGUGAGGAUAUUAGUAGUAAUACAAUAGUAUUACUACUGAGAAGGCACAUGAGGAUCACCCAUGUUCCUC [Ex4 344 Omei mod 5] (puzzle: Exclusion 4) |  |  | 0.0365 µM | 
12 | GAAAACGCAGAGGAUAUUUCAGGUCAAAGCUGCAAAGAAGGCUGCACAUGAGGAUCACCCAUGUGGUCAAUAAA [Mod of Quesina 21 - Jieux - Exclusion 6] (Eterna round: R97, puzzle: Exclusion 6) | 0.419 µM | 0.0343 µM |  | 
13 | GAAAACGUAGGAUAUUAAUACUUAUACAUGAGGAUCACCCAUGUUUGGUGGGUCAAAGAAUGAGAAGGGCGAUGAA [EX5 #10] (Eterna round: R97, puzzle: Exclusion 5) | 0.261 µM | 0.376 µM |  | 
14 | GAAAAGGAAGGAUAUACGAAAAAAAAGGGUAGAAAAAAAACACAUGAGGAUCACCCAUGUAGAAGGUCCAAAAG [salish99_ex2_r3_092] (puzzle: Exclusion 2) |  |  | 0.0435 µM | apparent KD of MS2 coat protein [3]: 0.151 µM; apparent KD of MS2 coat protein [4]: 0.0545 µM
15 | GAAAAGGUAGGAUAUACGAAAAAAAAAGGUAGAAAAAAAACACAUGAGGAUCACCCAUGUAGAAGGACCAAAAG [salish99_ex2_r3_070] (puzzle: Exclusion 2) |  |  | 0.0515 µM | apparent KD of MS2 coat protein [3]: 0.0374 µM; apparent KD of MS2 coat protein [4]: 0.0306 µM
16 | GAAAAGGUAGGAUAUACGAAAAAAAAGGGUAGAAAAAAAACACAUGAGGAUCACCCAUGUAGAAGGACCAAGAG [salish99_ex2_r3_039] (puzzle: Exclusion 2) |  |  | 0.0243 µM | apparent KD of MS2 coat protein [3]: 0.0617 µM; apparent KD of MS2 coat protein [4]: 0.0319 µM
17 | GAAAAGGUAGGAUAUACGAAAUAAAAGGGUAGAAAAAAAACACAUGAGGAUCACCCAUGUAGAAGGACCAAAAG [salish99_ex2_r3_084] (puzzle: Exclusion 2) |  |  | 0.0155 µM | apparent KD of MS2 coat protein [3]: 0.0529 µM; apparent KD of MS2 coat protein [4]: 0.0347 µM

Row | Sequence | apparent KD of MS2 coat protein (input ligand: FMN 200 uM) | apparent KD of MS2 coat protein (input ligand: none) | apparent KD of MS2 coat protein [2] | further results
18 | GAAAAGGUAGGAUAUACGAUAAAAAAGGGUAGAAAAAAAACACAUGAGGAUCACCCAUGUAGAAGGACCAAAAG [salish99_ex2_r3_086] (puzzle: Exclusion 2) |  |  | 0.0207 µM | apparent KD of MS2 coat protein [3]: 0.0952 µM; apparent KD of MS2 coat protein [4]: 0.03 µM
19 | GAAAAGGUAGGAUAUACGAUAAGAAAGGGUAGAUAAUAAACACAUGAGGAUCACCCAUGUAGAAGGACCAAAAG [salish99_ex2_r3_102] (puzzle: Exclusion 2) |  |  | 0.0354 µM | apparent KD of MS2 coat protein [3]: 0.139 µM; apparent KD of MS2 coat protein [4]: 0.0397 µM
20 | GAAAAGUCAGGAUAUGCAGAUAAAAAAACGAAAAAAAAUCUGCAGAAGGGACAUGAGGAUCACCCAUGUAAAAG [Mat - Exclusion 4 - Mayanna - D110] (Eterna round: R96, puzzle: Exclusion 4) |  |  |  | apparent KD of MS2 coat protein [1]: 0.0291 µM
21 | GAAAGCUUUGAGCUCGAUCACAUGAGGAUCACCCAUGUGGGAGCCAGGCGACGGCAUUCUGCGAGGGCGACUUUUGG [Eternabot (L2) Solution 42] (Eterna round: R97, puzzle: Sensor, turn-off variant 1) | 0.0178 µM | 0.0154 µM |  | 
22 | GAACGUGGUGAGGAUAUCCGGUCUAACGUGCCAGGAGAAGGCGCCACAUGAGGAUCACCCAUGUGGGUCCCGCC [EX6 B.9] (Eterna round: R97, puzzle: Exclusion 6) | 0.026 µM | 0.0149 µM |  | 
23 | GAAGGGCGUCUAGGAUAUAGUAUACGGCGAACAUGAGGAUCACCCAUGUGUCCGAAUGCGGCGAGCUAGAAGGAGAAUUCGCCC [Enuseszave] (Eterna round: R96, puzzle: Exclusion NG 2) | 0.0724 µM | 0.0491 µM |  | apparent KD of MS2 coat protein [1]: 0.0334 µM
24 | GAAUAGCGAGGAUAUACAUGAGGAUCACCCAUGUGAUCCUUAGGCUGUUCAAGCCAAUGUAGAAGGCGCAAAUU [jl-ex3.4.58 ViennaUCT mod] (Eterna round: R97, puzzle: Exclusion 3) | 0.0766 µM | 0.129 µM |  | 
25 | GAAUUAAUUAAUUAAUAAUACAUGAGGAUCACCCAUGUAGAUCCUACAUACAAUUUAAGUAGCUCGUCUUAUAAUUA [Stov1/1-A2] (Eterna round: R97, puzzle: Sensor, turn-off variant 1) | 0.108 µM | 0.202 µM |  | 
26 | GACACUCAUGUAAGUAUUUACAUGAGGAUCACCCAUGUACCACUAGAAGACUAGGGAACGAAACGAGCUGGCUGUCA [Eternabot (Original) Solution 6] (Eterna round: R97, puzzle: Sensor, turn-off variant 1) | 1.29 µM | 0.567 µM |  | 
27 | GACAGCAUGCAGGAUAUACCUCCUCUGCGGACGGUAGAAGGGCGUACAUGAGGAUCACCCAUGUCACCCAUUUC [Eternabot (L2) Solution 61] (Eterna round: R97, puzzle: Exclusion 6) | 0.0139 µM | 0.0144 µM |  | 
28 | GACAUACAUGAGGAUCACCCAUGUAAGGAUAUACGCAGUAGACUCCGAGGGACCUGAAGUAGAAGGUACAGGGU [Eternabot (L2) Solution 72] (Eterna round: R97, puzzle: Exclusion 1) | 0.103 µM | 0.0345 µM |  | 
29 | GACCCACAUGAGGAUCACCCAUGUGAGGAUAUCAUGCUUCGUAGUAAACUACGAAGUGUGAGAAGGCACAAUGG [Omei Ex1 C7] (Eterna round: R97, puzzle: Exclusion 1) | 0.134 µM | 0.0374 µM |  | 
30 | GACCGGACGUGGUCAGGUAACAUGAGGAUCACCCAUGUAGGUCUAAGAACAAGCCUUUUGUACGCUCGUCUUAUAUU [JR_SV3TOV1_Sub060] (puzzle: Sensor v3, turn-off variant 1) |  |  | 0.0468 µM | apparent KD of MS2 coat protein [3]: 0.0461 µM; apparent KD of MS2 coat protein [4]: 0.0558 µM
31 | GACCGGACGUGGUCAGGUAACAUGAGGAUCACCCAUGUAGGUCUAGGAACAAGCUUUUUGAAAGCUCGUCUUAUAAA [JR_SV3TOV1_Sub058] (puzzle: Sensor v3, turn-off variant 1) |  |  | 0.0336 µM | apparent KD of MS2 coat protein [3]: 0.0567 µM; apparent KD of MS2 coat protein [4]: 0.0693 µM
32 | GACCUACAUGAGGAUCACCCAUGUGAGGAUAUAUUGUUAUUUAUAAUAUUUUUUAGUGGUAGAAGGCGCGUGAU [JR_Exc1_Sub018] (Eterna round: R97, puzzle: Exclusion 1) | 0.0179 µM | 0.0202 µM |  | 
33 | GACCUAUAGGUAGGAUAUCAUUGCGAUUAGCUAUGAGAAGGACCACAUGAGGAUCACCCAUGUCCUCCAAUUAACCAUUUGGUC [Fiskers ExNg1 - 4] (Eterna round: R96, puzzle: Exclusion NG 1) | 0.239 µM | 0.0867 µM |  | apparent KD of MS2 coat protein [1]: 0.0696 µM
